Experimental data reported in paper PMC4560099.
Values belong to the substance of their own block, whether it stands above or below them.

Target: 14-3-3ε (UniProt P62259)
Experiment: GST-14-3-3ε pull-down from neuronal lysate
Details: reference: wild-type CRTC1270

binding against the reference (sites S64): weaker
Substance: CRTC1 (CRTC1270 reporter) 1-270 (from UniProt Q68ED7) S64A

Substance: CRTC1 (CRTC1270 reporter) 1-270 (from UniProt Q68ED7) S64A/S151A/S245A
binding against the reference (sites S64,S151,S245): lost

binding against the reference (sites S151): weaker
Substance: CRTC1 (CRTC1270 reporter) 1-270 (from UniProt Q68ED7) S151A

Substance: CRTC1 (CRTC1270 reporter) 1-270 (from UniProt Q68ED7) S245A
binding against the reference (sites S245): weaker
